According to the RNAGym collection of RNA variant scans (doi:10.1073/pnas.2313332121):
Variants at the floor of the assay were thinned out.

B1: TPR 5TU (parent)
chain: GGAUCUUCUCGAUCUAACAAAAAAGACAAAUCUGCCACAAAGCUUGAGAGCAUCUUCGGAUGCAGAGGCGGCAGCCUUCGGUGGCGCGAUAGCGCCAACGUUCUCAACUAUGACACGCAAAACGCGUGCUCCGUUGAAUGGAGUUUAUCAUG

Variants of: B1
Assay: polymerase ribozyme fitness, log enrichment relative to wild type (log ratio); higher = more active; in vitro selection for triplet polymerase activity
Method in brief: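 Streptavidin-bead capture of gel-excised extended constructs, followed by RT-PCR, closed a single triplicate in vitro selection round. That round began by annealing PCR-built, transcribed mutant libraries of each subunit of a heterodimeric triplet polymerase ribozyme with a biotinylated primer, the partner subunit and triplets, then incubating them frozen at −7 °C. After Illumina sequencing of inputs and outputs, genotypes needed ≥10 input reads and ≥1 read per output. Fitness is the base-2 logarithm of genotype enrichment over wild-type enrichment, using inverse-variance-weighted replicate averages.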

Row | Variant | polymerase ribozyme fitness (log ratio)
1 | U53A U55G C57A | 0.733
2 | C54A U61A C69U C125A | ≤ -4.2
3 | C54G C87U | -3.59
4 | C54G C87A | ≤ -4.2
5 | U53G C87G G133U | ≤ -4.2
6 | C54A C85U | -1.86
7 | U53G C96G U144C | -3.23
8 | C54A G136A | -0.852
9 | U53A U56A G58A C85U | 0.824
10 | U53A C54A G58A C85U | -0.519
11 | C54A U56A C93U A120G G126U | -2.38
12 | U53A C118G U144C | -1.81
13 | U53A C95U | -0.368
14 | U53A C96U | -1.85
15 | U53A C96A | -2.37
16 | U53G G80C | -4.15
17 | C54G G80U | -3.52
18 | U53A U55A C57A C85G A122G | -2.51
19 | C54G C96U | -1.33
20 | C54G C96A | -2.41
21 | C54A G70U G94A | -4.02
22 | U53G C96A U104G | -3.96
23 | C54A U61G | -1.82
24 | U53A G94A C125A U139C A142C | ≤ -4.2

Row | Variant | polymerase ribozyme fitness (log ratio)
25 | C54G G68C G80A G94U A98G | ≤ -4.2
26 | U53A C75U C85U C123U C125A | -2.32
27 | C54A G67A G70C C72G A73C G74A C75G C87G C116G | ≤ -4.2
28 | U53A G81U G88A A115G A147U | ≤ -4.2
29 | C54A U61A G67A C75A G80U C96A | ≤ -4.2
30 | U53A A110C | ≤ -4.2
31 | U53G C57A C85U A115U A121C | -2.93
32 | U53A C57A C69G A91C | ≤ -4.2
33 | U53A U130G A142C | -0.549
34 | U53G G92U G143U U144A | -3.84
35 | U53C G83C C116G | -3.05
36 | U53C G84A C95U | -0.536
37 | C54A C99A G141U | -2.47
38 | C54G C103A G140C | ≤ -4.2
39 | C54A G92U U135G | -4.08
40 | C54A A66G A91G C95G G141A G143U U146C | ≤ -4.2
41 | C54A C57G U90G U139A G140U U146A | ≤ -4.2
42 | U53A U135A | -1.55
43 | U53G C95U | -3.07
44 | U53G G117C A137G | -2.86
45 | C54A G88C | -3.99
46 | C54G C87U A106U A137U G140U A142C | ≤ -4.2
47 | U53G U55A U78A C93U A142C U148C | ≤ -4.2
48 | U53A G80A U109A C123U A142G | -3.11

Row | Variant | polymerase ribozyme fitness (log ratio)
49 | U53A C75U G88C | ≤ -4.2
50 | C54A C79U C93A A113U U127G | ≤ -4.2
51 | U53A G80C G143U | ≤ -4.2
52 | U53A C118G | -2.5
53 | U53G G59A | -1.37
54 | C54A G141A | -0.156
55 | U53A A122G U134A | -3.02
56 | C54G C114U G143C | -4.16
57 | C54G U56A C57A G81U C93U | -0.912
58 | U53G G58C U82G A138C U151A | ≤ -4.2
59 | C54A U78G U101G A107G C118A U130A | ≤ -4.2
60 | U53C G74A C76G C96U A110U | ≤ -4.2
61 | U53A U148G | -4.01
62 | C54G C95U | -2.35
63 | C54G C95A | -1.74
64 | U53C U56A A89U C93U G141U | -1.74
65 | U53C C69U C75A C93U A115C | ≤ -4.2
66 | C54G G59U U135C A138U | ≤ -4.2
67 | U53A G83A C118A | -1.88
68 | U53A G80C A106C C125U | ≤ -4.2
69 | C54G U55A C108G A122U | ≤ -4.2
70 | C54A A89U G92C A121U | -3
71 | U53A C75G C76U U82A C95U G128A | ≤ -4.2
72 | C54G C95G G133A | ≤ -4.2

Row | Variant | polymerase ribozyme fitness (log ratio)
73 | C54G C85A | -3.85
74 | U53A G70A C99A G124C | ≤ -4.2
75 | C54A U56G A110U U145G | ≤ -4.2
76 | C54A G58C | -1.45
77 | U53C U77C | ≤ -4.2
78 | U53A C76A | -2.19
79 | U53A C76G | ≤ -4.2
80 | U53A G59A G84U | -1.32
81 | C54A U55A A60U | -1.37
82 | C54G C79U G94C C96U A150G | ≤ -4.2
83 | U53A C93A C105A A119G | ≤ -4.2
84 | C54G G80C G81A C85U C129A U135C | ≤ -4.2
85 | U53A C79U A89G U134G | ≤ -4.2
86 | U53A G100U | -3.41
87 | U53A U56A G70U C93U G141C | ≤ -4.2
88 | C54A C87A | -4.19
89 | C54A C87U | -3.48
90 | U53G G84U C96G | ≤ -4.2
91 | U53A C93A U101C C125U C132U G140U A147C | ≤ -4.2
92 | U53G C57G G70C C79G A89U A91U C93U | ≤ -4.2
93 | U53A G80U C96A G143A U146C C149G | ≤ -4.2
94 | C54A C93U | -2.59
95 | C54A U55A A106G G141A G143C C149G | ≤ -4.2
96 | C54A G58A A91U C95A | ≤ -4.2

Row | Variant | polymerase ribozyme fitness (log ratio)
97 | U53A U56C G141U | -0.733
98 | C54A C69U | -4.12
99 | C54G A91G | -4.01
100 | C54G A91U | ≤ -4.2
101 | U53G U55A U148C | ≤ -4.2
102 | C54A C57G | -3
103 | C54A U55G G83A U102C C108G G126A | ≤ -4.2
104 | C54A C69U U144C | -3.51
105 | C54A C125U | -3.73
106 | U53A U109G | -0.777
107 | U53A G143A U146C | -2.83
108 | U53A G59C C76G C85U A89C A97C A107U G117U G133A U139G | ≤ -4.2
109 | U53G C96U C114U A120C A147U | -3.11
110 | U53A A106U | -1.9
111 | C54A A91U G100A G141C | ≤ -4.2
112 | U53A A119U | -2.1
113 | C54G U55A G70U G81C C87U G94C C96A C105A A120C | ≤ -4.2
114 | U53A C54G | -2.2
115 | U53A C54U | -0.319
116 | C54A A150G | -3.37
117 | C54G C57U C75A A97U G141C U145G | ≤ -4.2
118 | U53G A113U | -3.16
119 | U53G U77G C129A A147C | ≤ -4.2
120 | U53C U78G U127C U148C | ≤ -4.2

Row | Variant | polymerase ribozyme fitness (log ratio)
121 | U53A G59C C85U U135A | -0.238
122 | U53A C125U | -1.28
123 | U53C A73G G84A U109G G140C | ≤ -4.2
124 | U53A U55A C79U A98U | ≤ -4.2
125 | U53A G58A G80A G81A C87U | -2.31
126 | C54G U55A G94A C132U | ≤ -4.2
127 | U53A G58C | -1.52
128 | U53A G58A | -0.0533
129 | U53A A150C | -3.56
130 | U53A U56A G152A | -4
131 | U53A C54A A91U | ≤ -4.2
132 | C54G G74C G81A G88C | ≤ -4.2
133 | U53A A107U | -2.93
134 | U53A C57U G143C | -3.52
135 | C54G G65U A73U C87A A106U G140A G143A | ≤ -4.2
136 | C54A G84A A142C | -4.19
137 | C54G A142U | -1.98
138 | U53A C72U A97G U134A | -3.33
139 | C54A C87A C114A C116G | ≤ -4.2
140 | C54A C79A C87U U144C A150G U151A | ≤ -4.2
141 | C54G G65A C79U C85G A91U G136C | ≤ -4.2
142 | C54G C87G C103A C129G C132U | ≤ -4.2
143 | U53A G88C | ≤ -4.2
144 | U53C C57G C125U G143A | -3.67

Row | Variant | polymerase ribozyme fitness (log ratio)
145 | C54G C103G | ≤ -4.2
146 | C54G U55A G94U A98C U146G | -3.37
147 | C54A U55A C57A | 0.336
148 | C54A U148C | -3.69
149 | C54A C96G C103U C116A G136U | -4.12
150 | C54A U55A U56A C96A G141C | -4.08
151 | C54A G65C C93G | ≤ -4.2
152 | C54A U127C | -2.28
153 | U53G C87U A113U C116A G140U | ≤ -4.2
154 | U53A C93A C99U G141U | ≤ -4.2
155 | C54G C76G A89U C93A A113G C116U | ≤ -4.2
156 | C54G G67A U77C C87A C99U U130G | ≤ -4.2
157 | U53A C75U | -1.34
158 | U53A C63U C99G | -3.81
159 | U53G A97C | -1.81
160 | U53G A97U | -2.68
161 | C54A U55G G58U G81C C85A | -2.41
162 | U53G C87U A120C | -2.07
163 | U53A C99U C116U | -1.7
164 | U53G C118U | -1.68
165 | U53A C54U G74U C75U G86U G141A | ≤ -4.2
166 | U53A C54A A147C | -2.75
167 | C54G C76A A89C A98U A115U U151A | ≤ -4.2
